Results on 125 sequences are retold here after the supplement of paper PMC9112550, “Optimization of the antimicrobial peptide Bac7 by deep mutational scanning” (BMC Biology, 2022).

The series has as its system Escherichia coli TOP10. Description: shrunken log2 fold change of peptide-encoding DNA abundance (4.5 h post-induction vs induction); higher = less antimicrobial activity (less host growth inhibition). Conditions: time post-induction: 4.5 h; library: site-saturation at positions 5, 18, 19, 20.
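Also: peptides expressed intracellularly from a pBAD plasmid library in pooled LB shake-flask culture, induced with 0.3% L-arabinose, DNA abundance read by NGS, three biological replicates, DESeq2 with apeglm shrinkage.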

In the case of RRIRMRPPRLPRPRPRPWRTPRP, the “shrunken log2 fold change” value came to 0.324.

RRIRKRPPRLPRPRPRPICPPRP: the “shrunken log2 fold change” value is -0.122.

As to RRIRERPPRLPRPRPRPWSQPRP, the “shrunken log2 fold change” value was -0.0521.

On to RRIRCRPPRLPRPRPRPPIRPRP, for which the “shrunken log2 fold change” value was 0.0846.

In the case of RRIRLRPPRLPRPRPRPIKTPRP, the “shrunken log2 fold change” value was -0.0953.

Take RRIRKRPPRLPRPRPRPEWIPRP: the “shrunken log2 fold change” value amounted to 0.454.

As to RRIRWRPPRLPRPRPRPKNFPRP, the “shrunken log2 fold change” value was -0.188.

With RRIRCRPPRLPRPRPRPFGYPRP, the “shrunken log2 fold change” value is -0.174.

Consider RRIRFRPPRLPRPRPRPLTTPRP, for which the “shrunken log2 fold change” value was found to be 0.0259.

As for RRIRKRPPRLPRPRPRPDQQPRP, the “shrunken log2 fold change” value was 0.0777.

On to RRIRMRPPRLPRPRPRPLNMPRP, for which the “shrunken log2 fold change” value was -0.0641.

On to RRIRLRPPRLPRPRPRPTQNPRP, for which the “shrunken log2 fold change” value came to 0.404.

Take RRIRTRPPRLPRPRPRPAFSPRP: the “shrunken log2 fold change” value turned out to be 0.193.

Take RRIRIRPPRLPRPRPRPSCSPRP: the “shrunken log2 fold change” value is -0.83.

Consider RRIRRRPPRLPRPRPRPEGYPRP, for which the “shrunken log2 fold change” value worked out at 0.202.

As to RRIRLRPPRLPRPRPRPTVQPRP, the “shrunken log2 fold change” value is -0.191.

In the case of RRIRCRPPRLPRPRPRPLSSPRP, the “shrunken log2 fold change” value is -0.173.

Turning to RRIRPRPPRLPRPRPRPEMLPRP, the “shrunken log2 fold change” value came out at 0.16.

RRIRWRPPRLPRPRPRPPAYPRP: the “shrunken log2 fold change” value was -0.0328.

Take RRIRQRPPRLPRPRPRPEYWPRP: the “shrunken log2 fold change” value was found to be 0.0626.

With RRIRCRPPRLPRPRPRPDEMPRP, the “shrunken log2 fold change” value was -0.0197.

For the sequence RRIRTRPPRLPRPRPRPCQYPRP, the “shrunken log2 fold change” value was -0.293.

Turning to RRIRGRPPRLPRPRPRPWDIPRP, the “shrunken log2 fold change” value is 0.212.

On to RRIRMRPPRLPRPRPRPCNTPRP, for which the “shrunken log2 fold change” value is -0.238.

Take RRIRARPPRLPRPRPRPRTHPRP: the “shrunken log2 fold change” value came out at 0.259.

In the case of RRIRHRPPRLPRPRPRPGSTPRP, the “shrunken log2 fold change” value is -0.681.

For RRIRERPPRLPRPRPRPSLIPRP, the “shrunken log2 fold change” value is -2.26.

As for RRIRPRPPRLPRPRPRPNIPPRP, the “shrunken log2 fold change” value is -0.355.

As for RRIRGRPPRLPRPRPRPIYRPRP, the “shrunken log2 fold change” value was 0.2.

In the case of RRIRCRPPRLPRPRPRPGQRPRP, the “shrunken log2 fold change” value turned out to be 0.0965.

In the case of RRIRYRPPRLPRPRPRPLPRPRP, the “shrunken log2 fold change” value was 0.00472.

For the sequence RRIRTRPPRLPRPRPRPDWKPRP, the “shrunken log2 fold change” value was -0.0156.

For the sequence RRIRFRPPRLPRPRPRPVDVPRP, the “shrunken log2 fold change” value is -0.44.

Consider RRIRYRPPRLPRPRPRPNYVPRP, for which the “shrunken log2 fold change” value is -0.466.

Consider RRIRFRPPRLPRPRPRPQPYPRP, for which the “shrunken log2 fold change” value is -0.34.

RRIRTRPPRLPRPRPRPFKPPRP: the “shrunken log2 fold change” value is -0.0194.

As to RRIRERPPRLPRPRPRPQCQPRP, the “shrunken log2 fold change” value came to 0.158.

As to RRIRNRPPRLPRPRPRPQAMPRP, the “shrunken log2 fold change” value was -0.0233.

Consider RRIRPRPPRLPRPRPRPNLVPRP, for which the “shrunken log2 fold change” value is -0.225.

On to RRIRKRPPRLPRPRPRPSLDPRP, for which the “shrunken log2 fold change” value came out at 0.183.

As to RRIRNRPPRLPRPRPRPIRSPRP, the “shrunken log2 fold change” value is -0.389.

Turning to RRIRPRPPRLPRPRPRPIQEPRP, the “shrunken log2 fold change” value was -0.019.

For RRIRKRPPRLPRPRPRPSIRPRP, the “shrunken log2 fold change” value was -0.375.

With RRIRRRPPRLPRPRPRPWEAPRP, the “shrunken log2 fold change” value was found to be 0.155.

For the sequence RRIRFRPPRLPRPRPRPWYTPRP, the “shrunken log2 fold change” value is -0.38.

As for RRIRIRPPRLPRPRPRPGKMPRP, the “shrunken log2 fold change” value is -0.329.

On to RRIRERPPRLPRPRPRPMNPPRP, for which the “shrunken log2 fold change” value is -0.488.

Consider RRIRTRPPRLPRPRPRPHEVPRP, for which the “shrunken log2 fold change” value was -0.00804.

In the case of RRIRSRPPRLPRPRPRPEQYPRP, the “shrunken log2 fold change” value is -0.256.

With RRIRFRPPRLPRPRPRPEDGPRP, the “shrunken log2 fold change” value worked out at 0.333.

Consider RRIRNRPPRLPRPRPRPLFIPRP, for which the “shrunken log2 fold change” value is -1.03.

Regarding RRIRCRPPRLPRPRPRPGEWPRP, the “shrunken log2 fold change” value is 0.393.

For RRIRTRPPRLPRPRPRPSETPRP, the “shrunken log2 fold change” value came to 0.11.

As to RRIRWRPPRLPRPRPRPSYLPRP, the “shrunken log2 fold change” value is -0.417.

On to RRIRTRPPRLPRPRPRPRPFPRP, for which the “shrunken log2 fold change” value came out at 0.114.

For RRIRNRPPRLPRPRPRPMIAPRP, the “shrunken log2 fold change” value was -0.42.

As for RRIRDRPPRLPRPRPRPQRTPRP, the “shrunken log2 fold change” value came out at 0.0905.

In the case of RRIRRRPPRLPRPRPRPNWTPRP, the “shrunken log2 fold change” value was -0.285.

With RRIRERPPRLPRPRPRPSDWPRP, the “shrunken log2 fold change” value is 0.0574.

For RRIRRRPPRLPRPRPRPLAPPRP, the “shrunken log2 fold change” value was found to be 0.399.

On to RRIRDRPPRLPRPRPRPNRNPRP, for which the “shrunken log2 fold change” value is -0.227.

For RRIRWRPPRLPRPRPRPGQGPRP, the “shrunken log2 fold change” value was determined as 0.522.

With RRIRWRPPRLPRPRPRPYLEPRP, the “shrunken log2 fold change” value is -0.112.

Regarding RRIRPRPPRLPRPRPRPIWSPRP, the “shrunken log2 fold change” value was found to be 0.0653.

In the case of RRIRWRPPRLPRPRPRPSRHPRP, the “shrunken log2 fold change” value came to 0.0203.

RRIRIRPPRLPRPRPRPHDHPRP: the “shrunken log2 fold change” value is -0.174.

RRIRMRPPRLPRPRPRPRCNPRP: the “shrunken log2 fold change” value came to 0.105.

For the sequence RRIRKRPPRLPRPRPRPFGTPRP, the “shrunken log2 fold change” value was -0.0368.

Consider RRIRTRPPRLPRPRPRPAWVPRP, for which the “shrunken log2 fold change” value came out at 0.285.

As to RRIRERPPRLPRPRPRPDDMPRP, the “shrunken log2 fold change” value is -0.0903.

In the case of RRIRFRPPRLPRPRPRPGITPRP, the “shrunken log2 fold change” value was -0.45.

Regarding RRIRIRPPRLPRPRPRPFMWPRP, the “shrunken log2 fold change” value was -0.792.

On to RRIRYRPPRLPRPRPRPEFYPRP, for which the “shrunken log2 fold change” value was -0.316.

Take RRIRHRPPRLPRPRPRPLSQPRP: the “shrunken log2 fold change” value was -0.0443.

For the sequence RRIRARPPRLPRPRPRPLSIPRP, the “shrunken log2 fold change” value was -0.308.

Consider RRIRDRPPRLPRPRPRPCQEPRP, for which the “shrunken log2 fold change” value came out at 0.211.

On to RRIRSRPPRLPRPRPRPHAWPRP, for which the “shrunken log2 fold change” value was found to be 0.149.

As for RRIRYRPPRLPRPRPRPCAYPRP, the “shrunken log2 fold change” value was -0.0775.

For the sequence RRIRMRPPRLPRPRPRPYCMPRP, the “shrunken log2 fold change” value is -0.53.

As to RRIRVRPPRLPRPRPRPEMCPRP, the “shrunken log2 fold change” value is -0.0885.

For RRIRMRPPRLPRPRPRPTEHPRP, the “shrunken log2 fold change” value was determined as 0.443.

With RRIRCRPPRLPRPRPRPHYNPRP, the “shrunken log2 fold change” value is -1.32.

For RRIRWRPPRLPRPRPRPMDIPRP, the “shrunken log2 fold change” value was -0.175.

Turning to RRIRGRPPRLPRPRPRPDQYPRP, the “shrunken log2 fold change” value was -0.212.

In the case of RRIRIRPPRLPRPRPRPFDVPRP, the “shrunken log2 fold change” value was -0.296.

As for RRIRQRPPRLPRPRPRPYGYPRP, the “shrunken log2 fold change” value is -0.354.

In the case of RRIRVRPPRLPRPRPRPHVHPRP, the “shrunken log2 fold change” value is -0.45.

With RRIRYRPPRLPRPRPRPFLWPRP, the “shrunken log2 fold change” value is -0.0621.

Consider RRIRFRPPRLPRPRPRPKWMPRP, for which the “shrunken log2 fold change” value is -0.235.

As to RRIRARPPRLPRPRPRPPGQPRP, the “shrunken log2 fold change” value is 0.0736.

For RRIRVRPPRLPRPRPRPGDVPRP, the “shrunken log2 fold change” value is -0.262.

For RRIRDRPPRLPRPRPRPSDTPRP, the “shrunken log2 fold change” value is -0.343.

RRIRRRPPRLPRPRPRPWGTPRP: the “shrunken log2 fold change” value is -0.0589.

As to RRIRMRPPRLPRPRPRPWSPPRP, the “shrunken log2 fold change” value was -0.508.

In the case of RRIRDRPPRLPRPRPRPAVIPRP, the “shrunken log2 fold change” value is -0.0132.

For RRIRTRPPRLPRPRPRPKHYPRP, the “shrunken log2 fold change” value was -0.339.

Consider RRIRDRPPRLPRPRPRPQNQPRP, for which the “shrunken log2 fold change” value is -0.0268.

Turning to RRIRERPPRLPRPRPRPSFCPRP, the “shrunken log2 fold change” value was -0.593.

As to RRIRARPPRLPRPRPRPRWRPRP, the “shrunken log2 fold change” value worked out at 0.934.

For the sequence RRIRTRPPRLPRPRPRPICVPRP, the “shrunken log2 fold change” value is -0.289.

For RRIRCRPPRLPRPRPRPLAHPRP, the “shrunken log2 fold change” value was -0.0666.

For RRIRGRPPRLPRPRPRPGSDPRP, the “shrunken log2 fold change” value amounted to 1.06.

Regarding RRIRFRPPRLPRPRPRPECPPRP, the “shrunken log2 fold change” value turned out to be 0.0177.

Take RRIRPRPPRLPRPRPRPPENPRP: the “shrunken log2 fold change” value amounted to 0.365.

Consider RRIRARPPRLPRPRPRPCTYPRP, for which the “shrunken log2 fold change” value was -0.173.

Turning to RRIRIRPPRLPRPRPRPGALPRP, the “shrunken log2 fold change” value was -0.111.

Regarding RRIRPRPPRLPRPRPRPISWPRP, the “shrunken log2 fold change” value was -0.00365.

For RRIRHRPPRLPRPRPRPRNWPRP, the “shrunken log2 fold change” value amounted to 0.0465.

For the sequence RRIRIRPPRLPRPRPRPLVPPRP, the “shrunken log2 fold change” value is -0.33.

RRIRNRPPRLPRPRPRPSLAPRP: the “shrunken log2 fold change” value was determined as 0.0683.

As for RRIRFRPPRLPRPRPRPSEIPRP, the “shrunken log2 fold change” value was -0.345.

With RRIRYRPPRLPRPRPRPGCRPRP, the “shrunken log2 fold change” value was -0.0618.

Consider RRIRFRPPRLPRPRPRPLLYPRP, for which the “shrunken log2 fold change” value was -1.01.

Turning to RRIRERPPRLPRPRPRPSTQPRP, the “shrunken log2 fold change” value was -0.177.

As to RRIRCRPPRLPRPRPRPPVCPRP, the “shrunken log2 fold change” value was 0.222.

Consider RRIRFRPPRLPRPRPRPVLWPRP, for which the “shrunken log2 fold change” value was 0.577.

Turning to RRIRKRPPRLPRPRPRPKKEPRP, the “shrunken log2 fold change” value turned out to be 0.00375.

As for RRIRLRPPRLPRPRPRPTQTPRP, the “shrunken log2 fold change” value is -0.0101.

Turning to RRIRARPPRLPRPRPRPDVMPRP, the “shrunken log2 fold change” value stood at 0.0669.

Regarding RRIRDRPPRLPRPRPRPCDDPRP, the “shrunken log2 fold change” value came to 0.0345.

With RRIRKRPPRLPRPRPRPSMDPRP, the “shrunken log2 fold change” value amounted to 0.0069.

On to RRIRNRPPRLPRPRPRPCRKPRP, for which the “shrunken log2 fold change” value is -0.0373.

On to RRIRARPPRLPRPRPRPLPFPRP, for which the “shrunken log2 fold change” value is -0.249.

For the sequence RRIRRRPPRLPRPRPRPTEEPRP, the “shrunken log2 fold change” value turned out to be 1.07.

Regarding RRIRIRPPRLPRPRPRPSSFPRP, the “shrunken log2 fold change” value is -0.711.
